The source of these data is US20100040602A1 (RIBOVAX BIOTECHNOLOGIES, published 2010).

For test [1], the target named is T1, CG3 antigen (recombinant interstrain fusion of gB Antigenic Domain 2 from hCMV strains AD169 and Towne) (human cytomegalovirus strain AD169; …).
T1 construct: Commercial antigen (Biotest AG, cod. 807035); also called gB (AD2) antigen
T1 chain: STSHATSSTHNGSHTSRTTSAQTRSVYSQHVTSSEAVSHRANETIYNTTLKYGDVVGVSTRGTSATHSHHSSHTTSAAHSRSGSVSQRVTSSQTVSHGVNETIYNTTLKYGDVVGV
Briefly: ELISA, CG3 antigen (gB AD2), cell culture supernatant. (In general: An ELISA detects its analyte on a solid surface through an enzyme-linked reagent.)

Test [2] has as its target T2, gH(Ag)-GST fusion protein (gH amino terminal region, amino acids 16-144, hCMV strain VR1814, fused in frame … (human cytomegalovirus strain VR1814, UniProt P12824 16-144)).
T2 construct: also called gH antigen; not shown: Glutathione-S-Transferase (GST)
T2 chain: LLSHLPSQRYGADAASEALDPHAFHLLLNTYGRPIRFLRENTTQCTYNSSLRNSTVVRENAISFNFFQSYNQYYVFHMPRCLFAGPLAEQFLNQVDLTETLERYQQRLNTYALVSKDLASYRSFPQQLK
Briefly: ELISA, plate-coated gH(Ag)-GST, cell culture supernatant, anti-human IgG-HRP.

B1: 26A1 antibody (natural human IgG1 secreted by the 26A1 subculture, tested as cell culture supernatant) (antibody, V domains shown)
VH: QVQLQESGPGLVKPSQTLSLICTVSGGSVSSGGDYWTWIRQHPGKGLEWLGYIHSSGNIFYNPSLKSRLTLSMDTSKNQFFLKLTSVTAADTAVYYCARVYHKDFVVVPGAFPFEFWFDPWGQGTLVTVSS
VL: SYVLTQPPSVSVAPGQTARIPCGGNEIGSKSVHWYQQKPGQAPVLVVHDDSDRPSGIPDRFSGSNSGNTATLTISRVEAGDEADYYCQVWDSGSDHHVVFGGGTKLTVLG
notes: It is a human IgG1; also called 26A1 IgG; IgG1 produced by 26A1 culture
For B1, the binding result in test [1] and in test [2] was “no binding” each time.
